Here are results for one molecule from article PMC9742198 (Immunity, 2022).

This assay addresses SARS-CoV-2 receptor-binding domain (ancestral RBD) (SARS-CoV-2 (ancestral), UniProt P0DTC2). Briefly: ELISA. Background: An ELISA detects its analyte on a solid surface through an enzyme-linked reagent.

B1: CAB-I12 (antibody, V domains shown)
VH: QVQLVQSGAEVKKPGSSVKVSCKASGDTFSRYSISWVRQAPGQGLEWMGRIIPMFATANYAQKFQGRVTITADKTTSIAYMELSSLRSEDTAVYYCARANYYYESGGYHFDNWGQGTLVTVSS
VL: EIVLTQSPGTLSLSPGERATLSCRASQSVGSSYLAWYQQKPGQAPRLLIYGASTRATGIPHRFSGSGSGTDFTLTISRLEPEDFAVYYCQQYHNSPRTFGQGTKV
As for B1, the binding result is recorded as “binds”.
